Positions of bridges follow the written chain, without caps; N, C: chain ends. No end group written: not given here.

Assay [1] deals with T1, Human factor H (human, UniProt P08603 19-1231).
T1 construct: mature; Plasma-derived protein; also called fH
Briefly: monoclonal phage ELISA on coated factor H. How it is done: (§1) Microtiter wells were coated overnight with either factor H or BSA at 5 μg/mL in PBS at 4° C., and saturated with 5% non-fat milk in PBST for 1 h. Completely separated individual phage plaques from the third round of screening were picked and amplified. Phage particles of each amplified individual phage plaque were added to both factor H- and BSA-coated wells in parallel and allowed to bind at RT for 1 h. After six washes with PBST, bound phages were detected with HRP-conjugated anti-M13 monoclonal antibody (GE Healthcare), using ABTS (Roche) for color development. Clones that bound to factor H but not to BSA were considered positive; single-stranded DNA from positive clones was prepared using an M13 kit (Qiagen, Valencia, Calif.) and sequenced by the DNA sequencing facility of the University of Pennsylvania.
(An ELISA detects its analyte on a solid surface through an enzyme-linked reagent.)

Assay [2] addresses T2, fH19-20 (human, UniProt P08603 1107-1231).
T2 construct: domain: SCR19-20; also called factor H SCR19-20; C-terminal two SCR of factor H
T2 sequence (looked up): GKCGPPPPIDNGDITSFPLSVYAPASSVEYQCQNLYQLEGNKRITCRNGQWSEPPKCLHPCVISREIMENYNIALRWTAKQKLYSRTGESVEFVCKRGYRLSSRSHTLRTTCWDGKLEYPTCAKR
Briefly: monoclonal phage ELISA. The method, then:
as §1
(§2) To localize the binding sites on factor H of the positive clones, we further tested each clone by monoclonal phage ELISA for binding to factor H and its N- and C-terminal fragments, i.e. fH1-4 and fH19-20.

Assay [3] has as its target T3, factor H SCR 1-4 (fH1-4) (human, UniProt P08603 19-264).
T3 construct: domain: SCR 1-4; also called N-terminal fragment of factor H; regulatory fH1-4 fragment
Briefly: monoclonal phage ELISA. The method, then: as §1, §2

In the next assay the target is T4, BSA (UniProt P02769 25-607).
T4 construct: Only printed as 'BSA'
T4 sequence (P02769 25-607 limits assumed): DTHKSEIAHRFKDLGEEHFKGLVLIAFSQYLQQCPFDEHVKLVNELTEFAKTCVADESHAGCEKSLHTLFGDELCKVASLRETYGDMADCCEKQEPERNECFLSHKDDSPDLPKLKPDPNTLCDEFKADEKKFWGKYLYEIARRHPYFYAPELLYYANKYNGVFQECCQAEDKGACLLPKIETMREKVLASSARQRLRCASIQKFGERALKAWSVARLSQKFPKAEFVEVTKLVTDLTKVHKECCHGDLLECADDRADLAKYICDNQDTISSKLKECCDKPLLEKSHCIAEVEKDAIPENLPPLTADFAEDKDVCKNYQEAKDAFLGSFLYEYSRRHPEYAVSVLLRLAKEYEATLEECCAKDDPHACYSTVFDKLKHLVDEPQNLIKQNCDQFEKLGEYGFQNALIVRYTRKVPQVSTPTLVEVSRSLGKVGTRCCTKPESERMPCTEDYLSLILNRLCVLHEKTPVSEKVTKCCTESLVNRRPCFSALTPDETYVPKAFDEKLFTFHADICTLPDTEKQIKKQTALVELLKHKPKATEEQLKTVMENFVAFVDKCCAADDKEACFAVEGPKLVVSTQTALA
Briefly: monoclonal phage ELISA, BSA coated at 5 µg/mL. How it is done: as §1

In assay [4] the target is T2, fH19-20. Briefly: monoclonal phage ELISA on coated fragment. The method, then: as §1, §2
The target of assay [5] is T3, factor H SCR 1-4 (fH1-4). Briefly: monoclonal phage ELISA on coated fragment. The method, then: as §1, §2
For assay [6], the target named is T1, Human factor H. Briefly: ELISA, biotinylated peptide on coated streptavidin, factor H detected by polyclonal antibody. The method, then:
(§3) Two approaches were used to evaluate the binding of synthetic peptides to factor H. First, we used peptide-phage competition assays, in which serially diluted synthetic peptide was added to its parent phage at the step of phage binding to coated factor H. The rest of the steps were performed as described above for monoclonal phage ELISA. Second, ELISA experiments were used to evaluate the binding of factor H to the immobilized peptide. Microtiter plates were coated with streptavidin (New England Biolabs) at 10 μg/ml in PBS at 4° C. overnight, and saturated with 2% BSA in PBS. After washing, either the biotinylated 5C6 peptide or a biotinylated control peptide (linear compstatin; […]) was added at 10 μg/ml and allowed to bind at RT for 30 min. […] After 1 h of binding, the plates were washed, and bound factor H was detected with goat anti-human factor H polyclonal antibody (Quidel, San Diego, Calif.), followed by HRP-conjugated rabbit anti-goat IgG (Bio-Rad). […]
(§4) The direct binding between the peptide and factor H was initially evaluated in an ELISA experiment, in which the biotinylated 5C6 peptide and a biotinylated control peptide of similar size and charge (i.e., linear compstatin) were captured by coated streptavidin and the binding of purified factor H was detected by polyclonal antibodies.

Assay [7] concerns the target T3, factor H SCR 1-4 (fH1-4). Briefly: SPR, biotinylated peptide captured on streptavidin chip, fragment injected. How it is done:
The binding of factor H with surface-bound 5C6 peptide was further characterized using surface plasmon resonance (SPR) on a ProteOn XPR36 instrument (Bio-Rad Inc., Hercules, Calif.) using PBST (10 mM sodium phosphate, 150 mM NaCl, 0.005% Tween 20) as running buffer. Streptavidin (50 μg/ml in 10 mM sodium acetate pH 5.0) was immobilized on a GLC sensor chip at 30° C. using amine coupling. The biotinylated 5C6 peptide and a biotinylated control peptide (linear compstatin; see above) were captured on separate streptavidin-coated channels to a density of ˜200 resonance units (RU). Purified factor H (Complement Technologies, Tyler, Tex.) or recombinant fragments fH1-4 and fH19-20 were injected at a concentration of 100 nM for 2 rain at a flow rate of 25 μl/min with a dissociation phase of 6 min. A single injection of 2 M NaCl for 30 s was used to regenerate the surface between injections. […]
The binding activity and specificity was further validated using SPR assays, by simultaneously injecting factor H or its fragments over biotinylated 5C6 peptide and the control peptide, which were captured on a streptavidin-coated sensor chip. […] While a significant SPR response could also be detected for the fH19-20 fragment, this interaction was not stable and the signal rapidly returned to baseline. […]

Assay [8] concerns the target T1, Human factor H. Briefly: ELISA, biotinylated peptide on coated streptavidin, purified factor H detected by polyclonal antibody. How it is done:
as §3, §4

The target of assay [9] is T1, Human factor H. Briefly: peptide-phage competition ELISA on coated factor H. How it is done:
Two approaches were used to evaluate the binding of synthetic peptides to factor H. First, we used peptide-phage competition assays, in which serially diluted synthetic peptide was added to its parent phage at the step of phage binding to coated factor H. The rest of the steps were performed as described above for monoclonal phage ELISA. Second, ELISA experiments were used to evaluate the binding of factor H to the immobilized peptide. Microtiter plates were coated with streptavidin (New England Biolabs) at 10 μg/ml in PBS at 4° C. overnight, and saturated with 2% BSA in PBS. After washing, either the biotinylated 5C6 peptide or a biotinylated control peptide (linear compstatin; […]) was added at 10 μg/ml and allowed to bind at RT for 30 min. The wells were washed again, and factor H serially diluted in PBS, starting with 2.5 μg/ml, was added. After 1 h of binding, the plates were washed, and bound factor H was detected with goat anti-human factor H polyclonal antibody (Quidel, San Diego, Calif.), followed by HRP-conjugated rabbit anti-goat IgG (Bio-Rad). […]

T3 sequence (P08603 19-264 limits assumed): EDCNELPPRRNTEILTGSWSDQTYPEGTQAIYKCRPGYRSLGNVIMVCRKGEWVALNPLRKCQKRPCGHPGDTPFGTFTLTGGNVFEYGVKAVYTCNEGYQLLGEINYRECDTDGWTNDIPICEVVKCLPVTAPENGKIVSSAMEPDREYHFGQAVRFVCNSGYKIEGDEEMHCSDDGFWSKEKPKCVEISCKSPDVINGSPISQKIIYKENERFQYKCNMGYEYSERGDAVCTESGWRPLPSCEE

B1: Phage clone 5D1 (class 3, library ANL5) (peptide)
peptide: ASPSWCSYSHWCRH
notes: not shown: not specified for the library
As to B1, the binding result is “binds” with Human factor H [1], “no binding” with fH19-20 [2], “no binding” with factor H SCR 1-4 (fH1-4) [3] and “no binding” with BSA.

B2: Phage clone 5E10 (class 3, library ANL5) (peptide)
peptide: ASSFKCDYSHWCLH
notes: as for B1
In the case of B2, the binding result is given as “binds” with Human factor H [1], “no binding” with fH19-20 [2], “no binding” in the assay with factor H SCR 1-4 (fH1-4) [3] and “no binding” with BSA.

B3: Phage clone 4A1 (class 1, library ANL4) (peptide)
peptide: ASSGMCFTKKTVLC
notes: as for B1
For the molecule B3, the binding result with Human factor H [1] is “binds”; with fH19-20 [4], “binds”; with BSA, “no binding”.

B4: Phage clone 5-2C6 (class 2, library ANL5) (peptide)
peptide: ASSYDVGYSHDCRF
notes: as for B1
Take B4: the binding result in the assay with Human factor H [1] is “binds”; in the assay with factor H SCR 1-4 (fH1-4) [5], “binds”; with BSA, “no binding”.

B5: Biotinylated control peptide (linear compstatin, Cys-to-Ala double mutant) (peptide)
peptide: IAVVQDWGHHRAT
modifications: also: biotinylated, site not given here
notes: captured on coated streptavidin; also called LC; negative control peptide
On to B5, for which the binding result with Human factor H [6] is “no binding”.

B6: Phage clone 5G11 (class 3, library ANL5) (peptide)
peptide: ASSNVCSYSYWCAH
notes: as for B1
Turning to B6, the binding result with Human factor H [1] is reported as “binds”; with fH19-20 [2] it was “no binding”; with factor H SCR 1-4 (fH1-4) [3], “no binding”; in the assay with BSA, “no binding”.

B7: Phage clone 5-2B2 (class 3, library ANL5) (peptide)
peptide: ASSCMYSYWCTH
notes: as for B1
For B7, the binding result in the assay with Human factor H [1] is recorded as “binds”; in the assay with fH19-20 [2] it was “no binding”; in the assay with factor H SCR 1-4 (fH1-4) [3], “no binding”; in the assay with BSA, “no binding”.

B8: Biotinylated 5C6 peptide (peptide)
peptide: ASSSRCTYDHWCSH-{K(biotin)-NH2}
modifications: disulfide 6-12
notes: Captured on coated streptavidin (polystyrene wells or SPR chips); also called immobilized 5C6 peptide; not shown: C-terminal lysine carrying biotin
On to B8, for which the binding result with factor H SCR 1-4 (fH1-4) [7] is given as “no binding (tested: 100 nM)”; with Human factor H [8] it was “binds”.

B9: Synthetic 5C6 peptide (peptide)
peptide: ASSSRCTYDHWCSH-NH2
modifications: disulfide 6-12; N-terminus assumed
SMILES: C[C@H](N)C(=O)N[C@@H](CO)C(=O)N[C@@H](CO)C(=O)N[C@@H](CO)C(=O)N[C@@H](CCCNC(=N)N)C(=O)N[C@H]1CSSC[C@@H](C(=O)N[C@@H](CO)C(=O)N[C@@H](Cc2c[nH]cn2)C(N)=O)NC(=O)[C@H](Cc2c[nH]c3ccccc23)NC(=O)[C@H](Cc2c[nH]cn2)NC(=O)[C@H](CC(=O)O)NC(=O)[C@H](Cc2ccc(O)cc2)NC(=O)[C@H]([C@@H](C)O)NC1=O
notes: also called peptide 5C6
Turning to B9, in the assay with Human factor H [9], the binding result is recorded as “binds”.

B10: Phage clone 5C6 (class 3, library ANL5) (peptide)
peptide: ASSSRCTYDHWCSH
notes: also called parent phage of the 5C6 peptide; not shown: not specified for the library
With B10, the values for the binding result with Human factor H [1], with factor H SCR 1-4 (fH1-4) [3] and with BSA were “binds”, “no binding” and “no binding”, respectively.

The values are drawn from US20130344592A1 (University of Pennsylvania, published 2013).
